# Molecular target: the molecule itself
# Assay: cryo-EM structure
protein,measurement,value
"human VMAT1(ΔL1/2) (natural protein, UniProt P54219 1-525, looked up) MLRTILDAPQRLLKEGRASRQLVLVVVFVALLLDNMLFTVVVPIVPTFLYDMEFKEVNSSLHLGHAGSNCLQGTGFLEEEITRVGVLFASKAVMQLLVNPFVGPLTNRIGYHIPMFAGFVIMFLSTVMFAFSGTYTLLFVARTLQGIGSSFSSVAGLGMLASVYTDDHERGRAMGTALGGLALGLLVGAPFGSVMYEFVGKSAPFLILAFLALLDGALQLCILQPSKVSPESAKGTPLFMLLKDPYILVAAGSICFANMGVAILEPTLPIWMMQTMCSPKWQLGLAFLPASVSYLIGTNLFGVLANKMGRWLCSLIGMLVVGTSLLCVPLAHNIFGLIGPNAGLGLAIGMVDSSMMPIMGHLVDLRHTSVYGSVYAIADVAFCMGFAIGPSTGGAIVKAIGFPWLMVITGVINIVYAPLCYYLRSPPAKEEKLAILSQDCPMETRMYATQKPTKEFPLGEDSDEEPDHEE",stoichiometry N,2

# From publication PMC11070986 (Nature, 2024)
